In US20120034254A1 one finds Kd data, which are given here for three substances.

Among the targets are CD4 (UniProt P01730); WT Hxbc2 core; Full length Hxbc2 gp120.
What all share (assay): SPR
Background: Surface plasmon resonance follows binding to a sensor surface in real time, without labels.

Turning to Full length Hxbc2 gp120, the Kd with CD4 worked out at 6.29 nM.
Same read-out and setting: then WT Hxbc2 core, with 15.1 nM.
Turning to b12, the values for the Kd in the experiment with WT Hxbc2 core and in the experiment with Full length Hxbc2 gp120 were 2.67 nM and 2.63 nM, respectively.

Broadly, the Kd is the constant that tells how readily two partners part at equilibrium. A low value points to a tighter complex.
